Substitutions are numbered along the chain they refer to. Like-named read-outs stand apart in the source and are kept apart here.
B1: Fc tagged nanobody VHH35 (Fc fusion)
chain: EVQLVESGGGLVQPGGSLRLSCAASGSIYSFNFMGWFRQAPGKGRELVATINSFDDITYYPDSVEGRFTISRDNAKRMVYLQMNSLRAEDTAVYYCAVLGERTGISYGSAFDYWGQGTQVTVSSGSGGGGSGGGGS
B2: Fc tagged nanobody VHH34 (Fc fusion)
chain: EVQLVESGGGLVQPGGSLRLSCAASGFIYSFNIMGWFRQAPGKGRELVASINWFSDITYYPDSVEGRFTISRDNAKRMVYLQMNSLRAEDTAVYYCAAYLLRGDDRYYATYSYWGQGTQVTVSSGSGGGGSGGGGS
B3: Fc tagged nanobody VHH82 (Fc fusion)
chain: B2 chain with N52S, W53S, F54Y, S55D
B4: Fc tagged nanobody VHH43 (Fc fusion)
chain: EVQLVESGGGLVQPGGSLRLSCAASGFISDADIMGWFRQAPGKGRELVASINSYDSITYYPDSVEGRFTISRDNAKRMVYLQMNSLRAEDTAVYYCAVRVHSRDFSYWGQGTQVTVSSGSGGGGSGGGGS
B5: Fc tagged nanobody VHH80 (Fc fusion)
chain: EVQLVESGGGLVQPGGSLRLSCAASGFISNFNLMGWFRQAPGKGRELVATINSFDDITYYPDSVEGRFTISRDNAKRMVYLQMNSLRAEDTAVYYCAAEVRSSLDYALWTSRRSAFSYWGQGTQVTVSSGSGGGGSGGGGS
B6: Fc tagged nanobody VHH79 (Fc fusion)
chain: EVQLVESGGGLVQPGGSLRLSCAASGFTSRNYFMGWFRQAPGKGRELVATINSLSSITYYPDSVEGRFTISRDNAKRMVYLQMNSLRAEDTAVYYCAVYTPTTGPGEGSYTPWHDYWGQGTQVTVSSGSGGGGSGGGGS
B7: Fc tagged nanobody VHH60 (Fc fusion)
chain: EVQLVESGGGLVQPGGSLRLSCAASGRTFRVNLMGWFRQAPGKGRELVASINGFDDITYYPDSVEGRFTISRDNAKRMVYLQMNSLRAEDTAVYYCAAYDSDYDGRLFNYWGQGTQVTVSSGSGGGGSGGGGS

Key:
[1] = target: T1, COVID-19 S.P. RBD (Cat. #40592-V08B, SB) (SARS-CoV-2, UniProt P0DTC2 319-541)
[2] = target: T1, COVID-19 S.P. RBD (Cat. #40592-V08B, SB); remark: listed apart in the source
[3] = target: RBD-Fc (SARS-CoV-2 S protein amino acids 319-541 with human IgG1 Fc) (SARS-CoV-2; human, UniProt P0DTC2 319-541)
[4] = target: SARS-CoV-2 S protein (wildtype) (SARS-CoV-2, UniProt P0DTC2 14-1273); assay: cell-based or functional assay

| Binder | Kd [2] [nM] | also measured |
| --- | --- | --- |
| B1 |  | Kd [1]: 0.535 nM |
| B2 | 2.79 |  |
| B3 | 2.29 |  |
| B4 | 1.44 |  |
| B5 | 4.27 |  |
| B6 | 3.44 |  |
| B7 | 2.56 | EC50 (read off the curve) [3]: ~0.4 nM; IC50, authentic SARS-CoV-2 neutralization on Vero-E6 cells (viral RNA by RT-PCR) [4]: 1.53 nM; IC50, pseudovirus neutralization (luciferase activity in Caco-2 cells) [4]: 7.63 nM |

Reference: patent US20240158477A1 (BIODURO JIANGSU, published 2024)
